Measured values reported in patent publication US20260125454A1 (SHANGHAI JUNSHI BIOSCIENCES, published 2026).

T1: Biotin-huCGRPaSA (human, not fully specified; biotin (position not given))
T1 construct: exact construct ('aSA') not explained; also called Biotin CGRPaSA; full-length (1-37) CGRP
T1 peptide: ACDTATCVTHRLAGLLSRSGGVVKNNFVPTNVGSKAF


Biological target: T1, Biotin-huCGRPaSA
Test: ELISA, supernatant; relative to chimeric C245
Method: Biotin CGRPaSA was diluted with PBS (Hyclone) to 1.0 μg/mL, and the dilution was added to a microplate at 100 μL/well. The plate was let stand in an incubator at 37° C. and coated for 90 min and then washed, and 2% BSA was added to the plate at 200 μL/well. The plate was incubated in an incubator at 37° C. for 90 min and then washed. The humanized antibodies in Table 8 and the reference antibody (chimeric antibody C245) were diluted to 1000 ng/mL with a diluent (2% BSA) with a dilution factor of not more than 10. Then, the chimeric antibodies and the reference antibody were serially 2.5-fold diluted on a sample dilution plate. All the chimeric antibody solutions and the reference antibody solution were added into plates at 100 μL/well, and the plates were incubated in a thermostat incubator at 37° C. for 60 min and washed. An HRP-conjugated goat anti-human antibody IgG (manufacturer: Sigma, Cat. No. A0170; Fc specificity) was diluted 5000-fold with 2% BSA and added into the plates at 100 μL/well, and the plates were incubated in the thermostat incubator at 37° C. for 60 min and washed. Chromogenic reagent TMB was carefully added at 100 μL/well to avoid bubbles, and the system was incubated at 37° C. for 15 min away from light for chromogenic reaction. Finally, a 2 M hydrochloric acid solution was added at 100 μL/well to stop the reaction while avoiding bubbles, and the plates were read on a microplate reader within 10 min (wavelength: 450/620 nm).

Row | Binder | Relative binding activity, %
1 | hu119 (antibody, V domains shown, 2B8 HC1-2/1A2 LC2-2) VH: QVQLVQSGAEVKKPGASVKVSCKASGYTFTDYNMHWVRQAPGQGLEWMGNIYPYNGGTVYNQKFNNRVTLTVDTSSSTAYMELRSLRSDDTAVYYCAREGLGGYWGQGTLVTVSS VL: DIVLTQSPASLAVSPGQRATITCKASQNIDYDGYAYLNWYQQKPGQPPKVLIYSVFNLESGVPARFSGSGSGTDFTLTINPVEADDTANYYCQQSNEFPYTFGQGTKLEIK | 51%
2 | hu158 (antibody, V domains shown, 3E5 HC-2/1A2 LC2-2) VH: QVQLVQSGAEVKKPGASVKVSCKASGYTFTDYNMHWVRQAPGQRLEWMGYISPYNGGTAYNQKFKFRVTLTVDTSSSTAYMELSSLRSEDTAVYYCAREGLGGYWGQGTLVTVSS VL: DIVLTQSPASLAVSPGQRATITCKASQNIDYDGYAYLNWYQQKPGQPPKVLIYSVFNLESGVPARFSGSGSGTDFTLTINPVEADDTANYYCQQSNEFPYTFGQGTKLEIK | 71%
3 | hu163 (antibody, V domains shown, 3E5 HC-2/1F5 LC1-3) VH: QVQLVQSGAEVKKPGASVKVSCKASGYTFTDYNMHWVRQAPGQRLEWMGYISPYNGGTAYNQKFKFRVTLTVDTSSSTAYMELSSLRSEDTAVYYCAREGLGGYWGQGTLVTVSS VL: DIVLTQSPASLAVSPGQRATITCKASQNIDFDGYAYMNWYQQKPGQPPKVLIYSVFNLESGVPARFSGSGSGTDFTLTINPVEADDTANYYCQQSHEVPYTFGQGTKLEIK | 78%
4 | hu157 (antibody, V domains shown, 3E5 HC-2/1A2 LC2-1) VH: QVQLVQSGAEVKKPGASVKVSCKASGYTFTDYNMHWVRQAPGQRLEWMGYISPYNGGTAYNQKFKFRVTLTVDTSSSTAYMELSSLRSEDTAVYYCAREGLGGYWGQGTLVTVSS VL: DIVLTQSPASLAVSPGQRATITCKASQNIDYDGYAYLNWYQQKPGQPPKVLIYSVFNLESGVPARFSGSGSGTDFTLTINPVEANDTANYYCQQSNEFPYTFGQGTKLEIK | 15%
5 | hu124 (antibody, V domains shown, 2B8 HC1-2/1F5 LC1-3) VH: QVQLVQSGAEVKKPGASVKVSCKASGYTFTDYNMHWVRQAPGQGLEWMGNIYPYNGGTVYNQKFNNRVTLTVDTSSSTAYMELRSLRSDDTAVYYCAREGLGGYWGQGTLVTVSS VL: DIVLTQSPASLAVSPGQRATITCKASQNIDFDGYAYMNWYQQKPGQPPKVLIYSVFNLESGVPARFSGSGSGTDFTLTINPVEADDTANYYCQQSHEVPYTFGQGTKLEIK | 96%
6 | hu144 (antibody, V domains shown, 3E5 HC-1/1A2 LC2-1) VH: QVQLVQSGAEVKKPGASVKVSCKTSGYTFTDYNMHWVRQAPGQRLEWMGYISPYNGGTAYNQKFKFRVTLTVDTSSSTAYMELSSLRSEDTAVYYCAREGLGGYWGQGTLVTVSS VL: DIVLTQSPASLAVSPGQRATITCKASQNIDYDGYAYLNWYQQKPGQPPKVLIYSVFNLESGVPARFSGSGSGTDFTLTINPVEANDTANYYCQQSNEFPYTFGQGTKLEIK | 101%
7 | hu137 (antibody, V domains shown, 2B8 HC1-3/1F5 LC1-3) VH: QVQLVQSGAEVKKPGASVKVSCKASGYTFTDYNMHWVRQAPGQGLEWMGNIYPYNAGTVYNQKFNNRVTLTVDTSSSTAYMELSRLRSDDTAVYYCAREGLGGYWGQGTLVTVSS VL: DIVLTQSPASLAVSPGQRATITCKASQNIDFDGYAYMNWYQQKPGQPPKVLIYSVFNLESGVPARFSGSGSGTDFTLTINPVEADDTANYYCQQSHEVPYTFGQGTKLEIK | 93%
8 | hu132 (antibody, V domains shown, 2B8 HC1-3/1A2 LC2-2) VH: QVQLVQSGAEVKKPGASVKVSCKASGYTFTDYNMHWVRQAPGQGLEWMGNIYPYNAGTVYNQKFNNRVTLTVDTSSSTAYMELSRLRSDDTAVYYCAREGLGGYWGQGTLVTVSS VL: DIVLTQSPASLAVSPGQRATITCKASQNIDYDGYAYLNWYQQKPGQPPKVLIYSVFNLESGVPARFSGSGSGTDFTLTINPVEADDTANYYCQQSNEFPYTFGQGTKLEIK | 108%
